One test concerns the target human IL-23R (human) (UniProt Q5VWK5). As to the kind of experiment: cell-based or functional assay.
In test [1] the target is human IL-23R-mouse Fc fusion protein (human; mouse) (UniProt Q5VWK5). The test is described as follows: antigen ELISA, human IL-23R-Fc immobilized, HRP anti-human IgG, chemiluminescence. On the technique in general: In an ELISA, binding on a coated surface is turned into a signal by an enzyme label.
The target in test [2] is monkey IL-23R-mouse Fc fusion protein (monkey; mouse). The test is described as follows: antigen ELISA, monkey IL-23R-Fc immobilized, HRP anti-human IgG, chemiluminescence.

Bounds are passed on as bounds.

Broadly, the EC50 is the concentration giving half of the maximal effect.

human IL-23R (human), sequence (Q5VWK5 24-629 L310P limits assumed): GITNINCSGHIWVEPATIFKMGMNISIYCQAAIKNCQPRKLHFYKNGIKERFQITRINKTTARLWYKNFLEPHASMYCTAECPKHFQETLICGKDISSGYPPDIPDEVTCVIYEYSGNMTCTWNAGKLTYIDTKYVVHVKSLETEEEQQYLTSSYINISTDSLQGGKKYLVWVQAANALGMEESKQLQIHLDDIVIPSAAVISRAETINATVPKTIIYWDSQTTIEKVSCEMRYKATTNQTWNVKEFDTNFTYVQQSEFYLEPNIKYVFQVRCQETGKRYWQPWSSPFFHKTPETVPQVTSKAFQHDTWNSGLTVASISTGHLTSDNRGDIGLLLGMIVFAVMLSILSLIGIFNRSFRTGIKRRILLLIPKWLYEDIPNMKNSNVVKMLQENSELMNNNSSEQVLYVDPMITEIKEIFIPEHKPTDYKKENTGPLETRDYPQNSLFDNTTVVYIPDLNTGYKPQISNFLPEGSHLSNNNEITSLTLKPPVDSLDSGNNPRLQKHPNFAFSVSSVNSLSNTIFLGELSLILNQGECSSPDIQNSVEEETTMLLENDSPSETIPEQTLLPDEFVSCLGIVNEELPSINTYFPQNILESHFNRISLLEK
human IL-23R-mouse Fc fusion protein (human; mouse), sequence (Q5VWK5 24-353 L310P): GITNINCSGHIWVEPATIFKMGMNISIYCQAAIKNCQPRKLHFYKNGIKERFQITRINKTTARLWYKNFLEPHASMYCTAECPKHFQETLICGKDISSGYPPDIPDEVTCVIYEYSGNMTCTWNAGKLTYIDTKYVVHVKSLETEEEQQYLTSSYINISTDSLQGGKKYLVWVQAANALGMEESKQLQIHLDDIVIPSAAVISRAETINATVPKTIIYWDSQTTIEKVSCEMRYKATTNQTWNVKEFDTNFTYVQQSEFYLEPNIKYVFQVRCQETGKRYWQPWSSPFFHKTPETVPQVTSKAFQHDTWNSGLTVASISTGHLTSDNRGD

B1: hum20D7 (antibody, from another filing, V domains shown)
VH: QVQLVQSGAEVKKPGASVKVSCKASGYTFTNYAMNWVRQAPGQGLEWMGWINTYTGEPTYSDDFKGRVTFTLDTSTSTAYMELRSLRSDDTAVYYCARGGGYDEDYFDYWGQGTLVTVSS
VL: DIVMTQSPLSLPVTPGEPASISCKSSQSLFNTINQKTYLAWYLQKPGQSPQLLIYFASTRESGVPDRFSGSGSGTDFTLKISRVEAEDVGVYYCQQHYDTPWTFGQGTKVEIKR
For B1, in the test with human IL-23R (human), the IC50, IL-23-stimulated STAT3 phosphorylation in CD4 lymphocytes of human whole blood stood at 0.01 µg/mL and the IC50, inhibition of human IL-23-inducible Kit-225 cell proliferation was 0.055 µg/mL. In addition, the half-maximal effective concentration (EC50) in test [1] stood at 0.0485 µg/mL. Besides, in test [2], the EC50 is above 10 µg/mL.

The values are drawn from patent US20140275490A1.
